# Reference: article PMC5433940 (Chembiochem : a European journal of chemical biology, 2016)
# Ends that are not written are not given here.
# T1: p32 protein (Homo sapiens, UniProt Q07021)
# T1 sequence (Q07021 74-282): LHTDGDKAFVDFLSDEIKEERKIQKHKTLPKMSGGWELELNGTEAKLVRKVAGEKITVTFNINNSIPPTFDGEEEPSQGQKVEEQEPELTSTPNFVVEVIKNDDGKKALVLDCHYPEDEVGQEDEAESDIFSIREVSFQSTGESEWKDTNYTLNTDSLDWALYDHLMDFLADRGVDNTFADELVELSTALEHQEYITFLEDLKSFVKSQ
# T2: recombinant 6x-His-tagged p32 protein (p32/gC1qR) (UniProt Q07021 74-282)
# T2 sequence (looked up): T1 sequence (Q07021 74-282)
# Experiments:
# p32 protein = target: T1, p32 protein; assay: Binding of peptide-displaying T7 phage clones to immobilized p32 protein; details: peptide displayed on T7 phage; compared to LyP-1 phage
# [1] = target: recombinant 6x-His-tagged p32 protein (p32/gC1qR) (UniProt Q07021); assay: AUC
# [2] = target: T2, recombinant 6x-His-tagged p32 protein …; assay: fluorescence polarisation
Molecule,phage binding to p32 (p32 protein),other results
CKRGNRSMC,greatly improved binding to p32 compared to LyP-1 phage,
CTRGSRSKC,greatly improved binding to p32 compared to LyP-1 phage,
recombinant 6x-His-tagged p32 protein (p32/gC1qR) (from UniProt Q07021 74-282) (natural protein; other documents disagree on this pair),,stoichiometry N [1]: 3
"CGNKRTRGC (cysteine pairing not given here; also: FAM label, position not given here) [FAM-labeled LyP-1 peptide (CGNKRTRGC)]",,Kd [2]: > 23 µM
